Earlier results on one substance are cited in PMC8757841.

pKd: −log10 of the molar value.

As a reminder, the pKd is the Kd on a negative log10 scale, so that one unit is a factor of ten.

For this data set, the target named is Transferrin receptor (Rattus norvegicus) (UniProt Q99376).
UniProt Q99376, sequence (Q99376 whole entry): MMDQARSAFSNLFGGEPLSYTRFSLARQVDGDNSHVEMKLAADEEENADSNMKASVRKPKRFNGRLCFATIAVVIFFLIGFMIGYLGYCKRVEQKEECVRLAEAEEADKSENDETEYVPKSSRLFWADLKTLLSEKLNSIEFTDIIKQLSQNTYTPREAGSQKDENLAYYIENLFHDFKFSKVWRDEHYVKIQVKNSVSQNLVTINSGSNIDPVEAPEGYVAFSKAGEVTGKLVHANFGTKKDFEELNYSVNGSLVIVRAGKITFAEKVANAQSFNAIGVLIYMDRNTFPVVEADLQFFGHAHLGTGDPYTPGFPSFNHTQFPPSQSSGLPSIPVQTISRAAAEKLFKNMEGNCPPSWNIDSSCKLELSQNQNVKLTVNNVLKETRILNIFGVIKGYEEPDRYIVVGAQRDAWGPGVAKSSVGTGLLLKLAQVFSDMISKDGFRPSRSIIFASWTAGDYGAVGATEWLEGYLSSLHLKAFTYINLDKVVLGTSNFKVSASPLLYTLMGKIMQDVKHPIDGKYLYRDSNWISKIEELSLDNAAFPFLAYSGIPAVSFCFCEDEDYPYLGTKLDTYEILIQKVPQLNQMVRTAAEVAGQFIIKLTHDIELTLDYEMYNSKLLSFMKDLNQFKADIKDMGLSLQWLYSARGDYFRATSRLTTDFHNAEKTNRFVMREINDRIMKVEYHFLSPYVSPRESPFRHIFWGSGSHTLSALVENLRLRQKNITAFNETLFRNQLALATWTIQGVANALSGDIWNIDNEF

Transferrin, sequence (P12346 20-698): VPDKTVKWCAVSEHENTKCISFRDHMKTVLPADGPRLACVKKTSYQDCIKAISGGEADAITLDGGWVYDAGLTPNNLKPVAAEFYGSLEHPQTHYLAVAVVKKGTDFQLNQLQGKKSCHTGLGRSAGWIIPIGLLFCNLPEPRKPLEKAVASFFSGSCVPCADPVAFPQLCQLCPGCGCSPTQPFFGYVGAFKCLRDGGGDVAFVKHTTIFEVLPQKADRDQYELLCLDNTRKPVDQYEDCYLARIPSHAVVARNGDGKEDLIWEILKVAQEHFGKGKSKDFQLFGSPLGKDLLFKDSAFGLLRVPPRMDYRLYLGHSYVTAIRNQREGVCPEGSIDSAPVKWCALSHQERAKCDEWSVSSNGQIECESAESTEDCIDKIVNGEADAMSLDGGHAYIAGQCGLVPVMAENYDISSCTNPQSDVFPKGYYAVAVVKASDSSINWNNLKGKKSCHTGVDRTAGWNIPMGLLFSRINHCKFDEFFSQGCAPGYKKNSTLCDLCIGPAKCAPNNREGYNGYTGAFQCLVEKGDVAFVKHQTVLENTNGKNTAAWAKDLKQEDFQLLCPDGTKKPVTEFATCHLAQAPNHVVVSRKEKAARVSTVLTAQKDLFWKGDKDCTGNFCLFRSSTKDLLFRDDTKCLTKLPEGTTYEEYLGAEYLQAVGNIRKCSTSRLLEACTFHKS

Consider Transferrin (from UniProt P12346), for which the negative-log Kd (pKd) was 8.30.
